The RNAGym collection of RNA variant scans (doi:10.1101/gr.219683.116)

B1: mRNA-splicing (parent)
chain: AGUUGCUGCUGGGAGCUCCAGCACAGUGAAAUGGACAGAAGGGCAGAGCAA

Variants of: B1
Assay: exon inclusion enrichment index; higher = more inclusion; WT1 exon 5 minigene, HEK293
With G5A C6U U7A G8U C9A G21A C22A the “exon inclusion enrichment index” value was 0.0256. In the case of G5C C6G U7C C9A U10A, the “exon inclusion enrichment index” value is reported as 1.93. For G5C U7A U10C, the “exon inclusion enrichment index” value was 1.62. For G5C C6G U7C U10C G13A A14C, the “exon inclusion enrichment index” value was 3.48. For U17A, the “exon inclusion enrichment index” value was 0.131. For C44U, the “exon inclusion enrichment index” value was 0.0165. With G5C C6G U7C U10C C36U A37C the “exon inclusion enrichment index” value was 2.78. For G5C C6G U7C U10C C36U A37U, the “exon inclusion enrichment index” value was 2.2. In the case of C6A U7A C9A U10A G43C C44U, the “exon inclusion enrichment index” value is reported as 0.606. With U7C G8A U10C the “exon inclusion enrichment index” value was 2.58. With G2C U3A G5C C6G U7C U10C the “exon inclusion enrichment index” value was 3.34. For G5A U7C G8A U10C A23C C24A, the “exon inclusion enrichment index” value was 2.48. With G5C C6G U7C U10C A37G the “exon inclusion enrichment index” value was 4.39. In the case of G5A U7C G8A U10C G21U C22U, the “exon inclusion enrichment index” value is reported as 0.857. With G5A U7C G8A U10C C22A A23U the “exon inclusion enrichment index” value was 2.17. In the case of G5A U7C G8A U10C C22A A23G, the “exon inclusion enrichment index” value is reported as 2.59. In the case of G5A C6G U7G C9A A40C G41C, the “exon inclusion enrichment index” value is reported as 0.0197. With G5U G8U C9U A25G G26U the “exon inclusion enrichment index” value was 0.38. For G5C C6U G8C C9U U10C G43A C44A, the “exon inclusion enrichment index” value was 3.42. With G5A C6U U7A G8U C9A G21A the “exon inclusion enrichment index” value was 0.071. For G5C C6U G8C C9U U10C A31U U32C, the “exon inclusion enrichment index” value was 2.61. In the case of C6A U7G G8A C9A U10C, the “exon inclusion enrichment index” value is reported as 0.734. For G5U G8U C9U A35G C36U, the “exon inclusion enrichment index” value was 0.0033. With G5C C6A U7C G8A U10A A35U the “exon inclusion enrichment index” value was 0.00802. With G5U G8U C9U A20G G21C the “exon inclusion enrichment index” value was 0.187. With C9G the “exon inclusion enrichment index” value was 0.154. For G5A U7C G8A U10C G12U, the “exon inclusion enrichment index” value was 1.13. For C6A U7C C9A U10C U17C, the “exon inclusion enrichment index” value was 3.11. With G5A U7C G8A U10C G42U G43A the “exon inclusion enrichment index” value was 3.16. For C6A U7A C9A U10A C18G C19A, the “exon inclusion enrichment index” value was 0.924. In the case of U7G C9A, the “exon inclusion enrichment index” value is reported as 1.94. With G5C C6A U7C G8A U10A C44A A45U the “exon inclusion enrichment index” value was 0.339. In the case of G5C C6G U7C U10C A23U C24G, the “exon inclusion enrichment index” value is reported as 3.71. For G5C C6G U7C U10C C44U, the “exon inclusion enrichment index” value was 1.47. With G5C C6G U7C U10C G15C C16A the “exon inclusion enrichment index” value was 3.23. With G5A C6G U7G C9A A25C G26C the “exon inclusion enrichment index” value was 0.00427. For G5C C6U G8C C9U U10C A30U, the “exon inclusion enrichment index” value was 1.34. For G5C C6G U7C U10A G11C, the “exon inclusion enrichment index” value was 3.41. For G5A C6G U7G C9A A45C G46A, the “exon inclusion enrichment index” value was 0.000901. For G5C C6G U7C U10C C24A, the “exon inclusion enrichment index” value was 3.28. With C6A U7A C9A U10A G28U the “exon inclusion enrichment index” value was 0.147. For C6A U7A C9A U10A G28C, the “exon inclusion enrichment index” value was 0.528. For G5C C6G U7C U10C A23C C24A, the “exon inclusion enrichment index” value was 3.49. For G5U G8U C9U C36U A37U, the “exon inclusion enrichment index” value was 0.081. In the case of G5U G8U C9U C36U A37G, the “exon inclusion enrichment index” value is reported as 0.114. For C6A U7A C9A U10A C19U A20G, the “exon inclusion enrichment index” value was 0.121. With U4C C6U U7A G8U C9A the “exon inclusion enrichment index” value was 1.12. For G5C C6A U7C G8A U10A A45U G46C, the “exon inclusion enrichment index” value was 0.0541. With G5A U7C G8A U10C G11A G12A the “exon inclusion enrichment index” value was 0.934. With G5U G8U C9U G46U A47G the “exon inclusion enrichment index” value was 0.0739. For G5C C6A U7C G8A U10A C16A U17A, the “exon inclusion enrichment index” value was 0.05. In the case of G5A C6G U7G C9A A37C G38C, the “exon inclusion enrichment index” value is reported as 0.00112. In the case of G5A C6U U7A G8U C9A G12U G13C, the “exon inclusion enrichment index” value is reported as 0.00721. For C6A U7A C9A U10A G41U G42C, the “exon inclusion enrichment index” value was 1.58. In the case of G5A C6G U7G C9A G43A C44G, the “exon inclusion enrichment index” value is reported as 0.0259. With G5C C6U U7A G8C C9U U10C the “exon inclusion enrichment index” value was 1.66. With G5A C6G U7G C9A A20C the “exon inclusion enrichment index” value was 0.00932. For A23C C24A, the “exon inclusion enrichment index” value was 0.968. In the case of C6A U7A C9A U10A G15A C16G, the “exon inclusion enrichment index” value is reported as 0.366. For C6A U7C, the “exon inclusion enrichment index” value was 0.264. With C6A U7C C9A U10C A29G the “exon inclusion enrichment index” value was 3.29. With G5C C6U G8C C9U U10C C24A the “exon inclusion enrichment index” value was 1.72. With G5U C6G U7A G8U C9A the “exon inclusion enrichment index” value was 0.241. For C6A U7C C9A U10C A35U C36U, the “exon inclusion enrichment index” value was 0.135. In the case of C6A U7C C9A U10C G15A C16U, the “exon inclusion enrichment index” value is reported as 2.88. With C6A U7C C9A U10C G42A G43U the “exon inclusion enrichment index” value was 4.39. For C6A U7A C9A U10A G38A A39G, the “exon inclusion enrichment index” value was 0.862. With C6A U7A C9A U10A A30G the “exon inclusion enrichment index” value was 0.658. With C6A U7C C9A U10C C22A A23G the “exon inclusion enrichment index” value was 3.9. In the case of G5A C6G U7G C9A A30C A31G, the “exon inclusion enrichment index” value is reported as 0.00621. With G5A U7C C9U U10C the “exon inclusion enrichment index” value was 2.63. For G5C C6A U7C G8A U10A G33A G34U, the “exon inclusion enrichment index” value was 0.00646. In the case of A35C, the “exon inclusion enrichment index” value is reported as 0.041. For G5A C6U U7A G8U C9A A30U A31U, the “exon inclusion enrichment index” value was 0.0488. For G5C C6G U7C C9U U10C, the “exon inclusion enrichment index” value was 3.88. With G5U G8U C9U C19U A20U the “exon inclusion enrichment index” value was 0.0205. In the case of G5C C6U G8C C9U U10C C19U A20U, the “exon inclusion enrichment index” value is reported as 0.25. With A37U the “exon inclusion enrichment index” value was 0.121. In the case of A37G, the “exon inclusion enrichment index” value is reported as 0.438. With G5U G8U C9U A31U U32C the “exon inclusion enrichment index” value was 0.282. In the case of G5C C6G U7C U10C A31G U32C, the “exon inclusion enrichment index” value is reported as 4.5. With G5C C6U G8C C9U U10C G33A G34C the “exon inclusion enrichment index” value was 0.284. In the case of G5C C6U G8C C9U U10C G33A G34U, the “exon inclusion enrichment index” value is reported as 0.283. For G41U G42A, the “exon inclusion enrichment index” value was 0.0358.
